Positions count from the first letter of the chain named.
B1: Trx-h2, endogenous protein in Arabidopsis plants (protein)
chain: GGALSTVFGSGEDATAAGTESEPSRVLKFSSSARWQLHFNEIKESNKLLVVDFSASWCGPCRMIEPAIHAMADKFNDVDFVKLDVDELPDVAKEFNVTAMPTFVLVKRGKEIERIIGAKKDELEKKVSKLRA
B2: Thioredoxin h2 (Trx-h2), purified recombinant protein (protein)
chain: MGGALSTVFGSGEDATAAGTESEPSRVLKFSSSARWQLHFNEIKESNKLLVVDFSASWCGPCRMIEPAIHAMADKFNDVDFVKLDVDELPDVAKEFNVTAMPTFVLVKRGKEIERIIGAKKDELEKKVSKLRA
B3: Trx-h2(C/S), redox-insensitive point mutant of Trx-h2, recombinant (protein)
chain: B2 chain with C59S, C62S

Columns and labels:
[1] = target: CBF1-Myc (from CBF1-Myc^OE Arabidopsis plants)
[2] = target: His-CBF1 (histidine-tagged C-repeat-binding transcription factor 1), recombinant
Sequence of His-CBF1 (histidine-tagged C-repeat-binding transcription factor 1), recombinant (chain, as listed by the source): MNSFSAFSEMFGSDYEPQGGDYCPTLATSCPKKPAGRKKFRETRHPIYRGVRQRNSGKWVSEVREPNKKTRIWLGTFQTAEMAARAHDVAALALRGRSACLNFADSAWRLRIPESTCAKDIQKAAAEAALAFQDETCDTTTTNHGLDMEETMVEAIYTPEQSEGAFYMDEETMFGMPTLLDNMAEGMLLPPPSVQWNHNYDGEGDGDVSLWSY

Sequence of CBF1-Myc (from CBF1-Myc^OE Arabidopsis plants) (chain, as listed by the source): as above

Protein | cold-induced structural switching of CBF1-Myc oligomers in planta (non-reducing gel, CBF1-Myc^OE/Col-0 against CBF1-Myc^OE/trx-h2) [1] | EMSA: mobility shift of the biotin-labeled COR15a promoter probe with His-CBF1 [2] | dissociation of CBF1 oligomers into monomers (Trx system with NADPH, Trx reductase and 5 µM Trx-h2; non-reducing SDS-PAGE, western blot) [2]
B1 | gradually dissociated into small oligomers and monomers by cold (lanes 2-4). By contrast, no structural change was detected in CBF1 extracted from CBF1-Myc^OE/trx-h2 plants | – | –
B2 | – | Treatment with DTT or Trx-h2 ... induced a distinct mobility shift in the probe interacting with His-CBF1 | reduced and dissociated CBF1 oligomers into monomers
B3 | – | but not H2O2 or Trx-h2(C/S), induced a distinct mobility shift | –
